Laboratory results published in patent publication US7067277 (H LUNDBECK A S, dated 2006).
Residue numbers refer to the chain shown, from its start.

T1: rat GALR2 receptor (rat, UniProt O08726 1-372)
T1 sequence (looked up): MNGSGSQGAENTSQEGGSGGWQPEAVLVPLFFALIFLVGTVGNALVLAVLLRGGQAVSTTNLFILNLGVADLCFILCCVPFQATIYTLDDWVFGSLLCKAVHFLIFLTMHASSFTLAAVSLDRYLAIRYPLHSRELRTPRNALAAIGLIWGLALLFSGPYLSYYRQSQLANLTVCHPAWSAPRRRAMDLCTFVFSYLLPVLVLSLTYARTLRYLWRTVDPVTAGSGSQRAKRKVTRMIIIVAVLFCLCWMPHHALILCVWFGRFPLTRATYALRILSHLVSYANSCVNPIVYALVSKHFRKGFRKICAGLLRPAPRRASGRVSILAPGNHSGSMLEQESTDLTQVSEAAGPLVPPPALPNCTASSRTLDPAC

T2: human GALR3 receptor (human, UniProt O60755 1-368)
T2 sequence (looked up): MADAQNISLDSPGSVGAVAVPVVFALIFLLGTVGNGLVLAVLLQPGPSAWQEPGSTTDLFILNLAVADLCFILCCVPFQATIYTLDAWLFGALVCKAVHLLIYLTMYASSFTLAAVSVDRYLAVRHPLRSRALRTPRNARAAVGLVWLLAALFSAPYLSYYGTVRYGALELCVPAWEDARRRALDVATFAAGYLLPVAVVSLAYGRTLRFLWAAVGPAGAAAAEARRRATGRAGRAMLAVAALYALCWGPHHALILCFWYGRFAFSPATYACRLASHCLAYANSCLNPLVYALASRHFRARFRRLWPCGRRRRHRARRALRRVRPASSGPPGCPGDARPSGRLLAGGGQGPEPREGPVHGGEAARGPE

T3: rat GALR1 receptor (rat, UniProt Q62805 1-346)
T3 sequence (looked up): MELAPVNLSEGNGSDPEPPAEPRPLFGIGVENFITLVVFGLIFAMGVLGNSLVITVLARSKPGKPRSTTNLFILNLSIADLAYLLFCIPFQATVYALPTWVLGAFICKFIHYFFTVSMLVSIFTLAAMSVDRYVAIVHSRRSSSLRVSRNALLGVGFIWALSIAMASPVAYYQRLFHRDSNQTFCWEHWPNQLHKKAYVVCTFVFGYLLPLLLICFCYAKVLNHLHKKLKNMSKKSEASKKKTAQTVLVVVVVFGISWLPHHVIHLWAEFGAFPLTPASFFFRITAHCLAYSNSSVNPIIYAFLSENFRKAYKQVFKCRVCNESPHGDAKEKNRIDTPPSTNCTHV

T4: human α2B adrenergic receptor (human, UniProt P18089 1-450)
T4 sequence (looked up): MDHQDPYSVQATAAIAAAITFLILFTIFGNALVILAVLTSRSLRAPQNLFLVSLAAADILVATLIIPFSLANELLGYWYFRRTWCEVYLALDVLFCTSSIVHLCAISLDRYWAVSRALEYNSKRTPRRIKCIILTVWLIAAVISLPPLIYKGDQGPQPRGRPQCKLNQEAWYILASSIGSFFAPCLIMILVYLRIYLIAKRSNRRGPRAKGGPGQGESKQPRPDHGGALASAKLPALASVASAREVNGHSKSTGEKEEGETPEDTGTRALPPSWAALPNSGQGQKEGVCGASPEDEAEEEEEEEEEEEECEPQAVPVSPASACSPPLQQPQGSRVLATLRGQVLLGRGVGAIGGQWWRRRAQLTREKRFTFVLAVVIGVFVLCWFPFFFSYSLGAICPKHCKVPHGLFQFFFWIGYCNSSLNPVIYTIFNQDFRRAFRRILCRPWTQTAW

T5: rat GALR3 receptor (rat, UniProt O88626 1-370)
T5 sequence (looked up): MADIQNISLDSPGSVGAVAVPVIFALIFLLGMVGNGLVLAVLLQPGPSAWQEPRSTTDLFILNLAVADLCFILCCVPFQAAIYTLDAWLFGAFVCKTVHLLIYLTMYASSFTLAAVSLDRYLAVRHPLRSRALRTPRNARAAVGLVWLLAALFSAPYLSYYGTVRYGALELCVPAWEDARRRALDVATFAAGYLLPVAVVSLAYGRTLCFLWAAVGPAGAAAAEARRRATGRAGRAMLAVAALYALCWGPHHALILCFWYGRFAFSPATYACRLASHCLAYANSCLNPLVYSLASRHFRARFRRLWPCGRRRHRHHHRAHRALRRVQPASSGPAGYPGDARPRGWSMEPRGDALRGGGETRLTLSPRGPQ

T6: human α1A adrenergic receptor (human, UniProt P35348 1-466)
T6 sequence (looked up): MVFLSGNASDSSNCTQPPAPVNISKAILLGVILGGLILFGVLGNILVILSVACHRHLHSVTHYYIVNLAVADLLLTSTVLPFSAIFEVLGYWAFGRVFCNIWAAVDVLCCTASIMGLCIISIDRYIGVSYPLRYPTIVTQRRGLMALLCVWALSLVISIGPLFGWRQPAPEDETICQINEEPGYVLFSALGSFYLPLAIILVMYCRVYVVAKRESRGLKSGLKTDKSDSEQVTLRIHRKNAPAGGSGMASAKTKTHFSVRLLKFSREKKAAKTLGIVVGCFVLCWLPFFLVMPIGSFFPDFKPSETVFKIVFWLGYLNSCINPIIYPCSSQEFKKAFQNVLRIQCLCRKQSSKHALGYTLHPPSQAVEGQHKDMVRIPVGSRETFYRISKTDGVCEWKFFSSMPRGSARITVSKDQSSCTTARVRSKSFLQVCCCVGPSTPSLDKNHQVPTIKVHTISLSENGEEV

B1: Human Gαq/z5 (Ala→Ser substitution at position 171) (other)
chain: MTLESIMACCLSEEAKEARRINDEIERQLRRDKRDARRELKLLLLGTGESGKSTFIKQMRIIHGSGYSDEDKRGFTKLVYQNIFTAMQAMIRAMDTLKIPYKYEHNKAHAQLVREVDVEKVSAFENPYVDAIKSLWNDPGIQECYDRRREYQLSDSTKYYLNDLDRVADPSYLPTQQDVLRVRVPTTGIIEYPFDLQSVIFRMVDVGGQRSERRKWIHCFENVTSIMFLVALSEYDQVLVESDNENRMEESKALFRTIITYPWFQNSSVILFLNKKDLLEEKIMYSHLVDYFPEYDGPQRDAQAAREFILKMFVDLNPDSDKIIYSHFTCATDTENIRFVFAAVKDTILQLNLKYIGLC
B2: C. elegans Gαq/z5 (other)
chain: MACCLSEEAREQKRINQEIEKQLQRDKRNARRELKLLLLGTGESGKSTFIKQMRIIHGQGYSEEDKRAHIRLVYQNVFMAIQSMIRAMDTLDIKFGNESEELQEKAAVVREVDFESVTSFEEPYVSYIKELWEDSGIQECYDRRREYQLTDSAKYYLSDLRRLAVPDYLPTEQDILRVRVPTTGIIEYPFDLEQIIFRMVDVGGQRSERRKWIHCFENVTSIMFLVALSEYDQVLVECDNENRMEESKALFRTIITYPWFTNSSVILFLNKKDLLEEKILYSHLADYFPEYDGPPRDPIAAREFILKMFVDLNPDADKIIYSHFTCATDTENIRFVFAAVKDTILQHNLKYIGLC
B3: C. elegans Gαq/z9 (other)
chain: B2 chain with H347N

target: T1, rat GALR2 receptor; test: cell-based or functional assay

| Binder | max Ca2+ signal, COS-7, FLIPR; agonist GAL |
| --- | --- |
| B1 | 4860 fluorescence units |
| B2 | 4200 fluorescence units |
| B3 | 4470 fluorescence units |

target: human dopamine D1 receptor (human, UniProt P21728 1-446); test: cell-based or functional assay
Sequence (P21728 whole entry): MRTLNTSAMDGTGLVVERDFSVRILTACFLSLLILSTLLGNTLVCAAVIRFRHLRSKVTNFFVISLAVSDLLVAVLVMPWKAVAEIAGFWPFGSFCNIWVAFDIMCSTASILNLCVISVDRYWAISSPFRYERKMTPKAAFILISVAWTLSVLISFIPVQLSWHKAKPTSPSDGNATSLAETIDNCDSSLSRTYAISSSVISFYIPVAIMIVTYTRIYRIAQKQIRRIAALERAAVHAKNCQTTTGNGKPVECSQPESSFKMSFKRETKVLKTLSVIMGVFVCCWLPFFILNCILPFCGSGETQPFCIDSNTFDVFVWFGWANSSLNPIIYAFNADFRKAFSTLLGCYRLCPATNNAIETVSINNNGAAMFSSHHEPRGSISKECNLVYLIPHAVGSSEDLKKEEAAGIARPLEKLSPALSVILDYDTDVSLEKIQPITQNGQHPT

| Binder | max Ca2+ signal, COS-7, FLIPR; agonist DA |
| --- | --- |
| B1 | 0 fluorescence units |
| B2 | 12100 fluorescence units |
| B3 | 13100 fluorescence units |

target: T2, human GALR3 receptor; test: cell-based or functional assay

| Binder | max Ca2+ signal, COS-7, FLIPR; agonist GAL |
| --- | --- |
| B1 | 804 fluorescence units |
| B2 | 1520 fluorescence units |
| B3 | 2050 fluorescence units |

target: rat Y4 receptor (rat, UniProt Q63447 1-375); test: cell-based or functional assay
Sequence (Q63447 whole entry): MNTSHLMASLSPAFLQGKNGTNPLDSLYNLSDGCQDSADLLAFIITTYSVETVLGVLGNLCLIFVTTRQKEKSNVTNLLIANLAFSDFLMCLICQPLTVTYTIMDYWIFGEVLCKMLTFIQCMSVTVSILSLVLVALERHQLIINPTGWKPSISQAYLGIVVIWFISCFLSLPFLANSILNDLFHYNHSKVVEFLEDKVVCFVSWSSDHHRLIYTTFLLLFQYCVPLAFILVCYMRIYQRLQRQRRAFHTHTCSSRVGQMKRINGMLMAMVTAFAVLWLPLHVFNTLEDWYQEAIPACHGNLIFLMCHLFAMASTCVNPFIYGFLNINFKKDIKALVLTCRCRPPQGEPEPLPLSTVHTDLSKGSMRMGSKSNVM

| Binder | max Ca2+ signal, COS-7, FLIPR; agonist PP |
| --- | --- |
| B1 | 4390 fluorescence units |
| B2 | 3660 fluorescence units |
| B3 | 2580 fluorescence units |

target: human dopamine D3 receptor (human, UniProt P35462 1-400); test: cell-based or functional assay
Sequence (P35462 whole entry): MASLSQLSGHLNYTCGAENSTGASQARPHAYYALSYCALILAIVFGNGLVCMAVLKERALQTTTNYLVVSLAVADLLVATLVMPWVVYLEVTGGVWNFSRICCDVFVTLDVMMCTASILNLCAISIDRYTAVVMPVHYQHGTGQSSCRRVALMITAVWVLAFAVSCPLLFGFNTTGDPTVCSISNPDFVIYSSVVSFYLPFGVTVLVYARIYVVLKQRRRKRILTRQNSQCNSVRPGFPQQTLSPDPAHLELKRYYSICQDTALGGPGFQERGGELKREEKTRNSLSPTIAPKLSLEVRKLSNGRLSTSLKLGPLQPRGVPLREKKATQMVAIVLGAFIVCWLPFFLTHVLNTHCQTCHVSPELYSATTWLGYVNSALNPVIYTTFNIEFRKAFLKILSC

| Binder | max Ca2+ signal, COS-7, FLIPR; agonist DA |
| --- | --- |
| B1 | 0 fluorescence units |
| B2 | 0 fluorescence units |
| B3 | 121 fluorescence units |

target: T3, rat GALR1 receptor; test: cell-based or functional assay

| Binder | max Ca2+ signal, COS-7, FLIPR; agonist GAL |
| --- | --- |
| B1 | 82 fluorescence units |
| B2 | 3090 fluorescence units |
| B3 | 5950 fluorescence units |

target: T4, human α2B adrenergic receptor; test: cell-based or functional assay

| Binder | max Ca2+ signal, COS-7, FLIPR; agonist NE |
| --- | --- |
| B1 | 4520 fluorescence units |
| B2 | 4980 fluorescence units |
| B3 | 5140 fluorescence units |

target: T5, rat GALR3 receptor; test: cell-based or functional assay

| Binder | max Ca2+ signal, COS-7, FLIPR; agonist GAL |
| --- | --- |
| B1 | 2800 fluorescence units |
| B2 | 2300 fluorescence units |
| B3 | 2970 fluorescence units |

target: T6, human α1A adrenergic receptor; test: cell-based or functional assay

| Binder | max Ca2+ signal, COS-7, FLIPR; agonist NE |
| --- | --- |
| B1 | 14200 fluorescence units |
| B2 | 9820 fluorescence units |
| B3 | 6600 fluorescence units |
